From the nanobody polyreactivity screen of Harvey et al. (2022) come the findings set out here.

This series is described as follows: yeast display, Sf9 membrane polyspecificity reagent, FACS + sequencing; frameworks hold sequencing errors. A digest of the protocol: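 Sorting gates, low and high (top ~1%), were placed on anti-HA fluorescence to track expression and on streptavidin fluorescence to track reagent binding. A clone's polyreactivity label is taken from the gate it came out of. The reagent was 10% biotinylated, detergent-solubilized Sf9 membrane, applied for 1 hour at 4 °C to galactose-induced yeast display cells.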
Take “QVQLVESGGGLVQAGGSLRLSCAASGRTFTYYAMGWYRQAPGKERELVAAITSGGRTYYADSVKGRFTISRDNAKNTVYLQMKSLKPEDTAVYYCAARRIRDYYRSYDYWGQGTQVTVSS”: the “polyreactivity (PSR sort gate)” value was “high polyreactivity”. In the case of “QVQLVESGGGLVQAGGSLRLSCAASGSTLYWNAMGWYRQAPGKDRELVATINTNGGSTYYADSVKGRFTISRDNAKNTVYLQMNSLKPEDTAVYYCAAQVRQWGYFRYYYWGQGTQVTVSS”, the “polyreactivity (PSR sort gate)” value was “high polyreactivity”. As for “QVQLVESGGGLVQAGGSLRLSCAASGLTFGFYAMGWYRQAPGKERELVAGISNGGSTNYADSVKGRFTISRDNAKNTVYLQMNSLKPEDTAVYYCAARLYARRLYDYWGQRTQVTVSS”, the entry is “low polyreactivity”.

Regarding “QVQLVESGGGLVQAGGSLRLSCAASGFIFHSYAMRWYRQAPGKERELVAAITHSGGRTYYADCVKGRFTISRDNAKNTVYLQMNSLKPEDTAVYYCAAVTRRHEYDYWGQGSQVTVSS”, the “polyreactivity (PSR sort gate)” value is reported as “high polyreactivity”. As for “QVQLVESGGGLVQAGGSLRLSCAASGNTFLPNAMGWYRQAPGKERELVAAISNSGGSTYYADSVKGRFTISRDNAKNTVYLQMNSLKPEDTAVYYCAKRQWFPYYRGRDYWGQGTQVTVSS”, the “polyreactivity (PSR sort gate)” value is “high polyreactivity”. As for “QVQLVESGGGLVQAGGSLRLSCAASGRTFGGNAMGWYRQAPGKERELVAAITVSAGHTYYADSVKGRFTISRDNAKNTVYLQMNSLKPEDTAVYYCAAGVPYYWSYVWKHPRYDHWGQGTQVTVSS”, the entry is “low polyreactivity”; as for “QVQLVDSGGGLVQAGGSLRLSCAASGSTFDRNGMGWYRQAPGKERELVAAITRGGSTYYADSVKGRFTISRDNAKNTVYLQMNSLKPEDTAVYYCAKRYRGGYYYPYNYWGQGTQVTVSS”, “high polyreactivity”; as for “QVQLVESGGGLVQAGGSLRLSCAASGRIFYWNAMGWYRQAPGKERELVAGITGGGNTNYADSVKGRFTISRDNAKNTVYLQMNSLKPEDTAVYYCATRTNRRRSYDYWGQGTQVTVSS”, “high polyreactivity”. As for “QVQLVESGGGLVQAGGSLRLSCAASGSTFSYYAMGWYRQAPGKEREFVAAISYSTTSTFYADSVKGRFTISRDNAKNTVYLQMNSLKPEDTAVYYCAARARYSPATYDYWGQGTQVTVSS”, the entry is “high polyreactivity”; as for “QVQLVESGAGLVQAGGSLPLSCAASGFTFTIYAMGWYRQAPGKERELVATISGRAGRTYYADSVKGRFTISRDNAKNTVYLQMNSMKPEDTAGYYCNAGQWRYTGLYYYWGQGTQVTVSS”, “high polyreactivity”. On to “QVQLVESGGGLVQAGGSLRLSCAASGRTFKWYAMGWYRQAPGKERELVAGISRGAGRTYYADSVKGRFTISRDNAKNTVYLQMNSLKPEDTAVYYCAAVPSYHSTSPFYYWGQGTQVTVSS”, for which the “polyreactivity (PSR sort gate)” value is “high polyreactivity”. “QVQLVESGGGLVQAGGSLRLSCAASGSIFFYALGWYRQAPGKERELVADITYTGGSKYADSVKGRFTISRDNAKNTVYLQLNRLKPEDTAVYYCAKLDGGLFDYWGQGTQVTVSS”: the “polyreactivity (PSR sort gate)” value is listed as “low polyreactivity”. With “QVQLVESGGGLVQAGGSLRLSCAASGITFYWYTMGLYRQAPGKERELVAAISSRGSSTRYADSVKGRFTISRDNAKNTVYLQMNSLKPEDTAVYYCAADDLSDGYYDEAYEDNYWGQGTQVTVSS” the entry was “low polyreactivity”; with “QVQLVESGGGLVQAGGSLRLSCAASGSTFWSYTMGWYRQAPGKERELVARITGRGGSTYYADSVKGRFTISRDNAKNTVYLLMNSLKPEDTAVYYCAAGGGRYGFYRFDYWGQGTQVTVSS”, “low polyreactivity”; with “QVQLVESGGGLVQAGGSLRLSCAASGSIFSQYAMGWYRQAPGKERELVAAISASGGRTYYADSVKGRFTISRDNAKNTVYLQMNSLKPEDTAVYYCNAAHGSNRYSFVNPFYYWGQGTQVTVSS”, “high polyreactivity”. “QVQLVESGGGLVQAGGSLRLSCAASGRIFGVYAMGWYRPAPGKERELVAAITRGASTYYADSVKGRFTISRDNAKNTVYLQMNSLKPEDTAVYYCAAVVSGRYWGYYSWGQGTQVTVSS”: the “polyreactivity (PSR sort gate)” value is “high polyreactivity”.
